According to US6429014B1, “Monoterpene synthases from grand fir (Abies grandis)” (Washington State University Research Foundation, priority 1997, dated 2002):

B1: ag9: recombinant terpinolene synthase from Grand fir encoded by clone ag9 (SEQ ID NO:77; protein SEQ ID NO:78) (protein, listed as Abies grandis)
chain: MALVSILPLSSKSVLHKSWIVSTYEHKAISRTIPNLGLRGRGKSVTHSLRMSLSTAVSDDHGVQRRIVEFHSNLWDDDFIQSLSTPYGAPSYRERADRLIVEVKGIFTSISAEDGELITPLNDLIQRLLMVDNVERLGIDRHFKNEIKAALDYVYSYWNEKGIGSGSDSGVADLNSTALGFRILRLHGYSVSSDVLEHFKEEKEKGQFVCSAIQTEEEIKSVLNLFRASLIAFPGEKVMEEAEIFSKIYLKEALQNIAVSSLSREIEYVLEDGWQTNMPRLETRNYIDVLGENDRDETLYMNMEKLLEIAKLEFNIFHSLQQRELKDLSRWWKDSGFSHLTFSRHRHVEFYALASCIETDRKHSGFRLGFAKMCHLITVLDDIYDTFGTMEELELFTAAFKRWDPSATDLLPEYMKGLYMVVYETVNEIAREADKSQGRETLNDARRAWEAYLDSYMKEAEWISSGYLPTFEEYMETSKVSFGYRIFALQPILTMDVPLTHHILQEIDFPLRFNDLICSILRLKNDTRCYKADRARGEEASCISCYMKENPGSTEEDAINHINAMVNNLIKEVNWELLRQDGTAHIACKKHAFDILKGSLHGYKYRDGFSVANKETKNWVRRTVLESVPL
B2: ag6: recombinant (−)-camphene synthase from Grand fir encoded by clone ag6 (SEQ ID NO:64; protein SEQ ID NO:65) (protein, listed as Abies grandis)
chain: MALLSITPLVSRSCLSSSHEIKALRRTIPTLGICRPGKSVAHSINMCLTSVASTDSVQRRVGNYHSNLWDDDFIQSLISTPYGAPDYRERADRLIGEVKDIMFNFKSLEDGGNDLLQRLLLVDDVERLGIDRHFKKEIKTALDYVNSYWNEKGIGCGRESVVTDLNSTALGLRTLRLHGYTVSSDVLNVFKDKNGQFSSTANIQIEGEIRGVLNLFRASLVAFPGEKVMDEAETFSTKYLREALQKIPASSILSLEIRDVLEYGWHTNLPRLEARNYMDVFGQHTKNKNAAEKLLELAKLEFNIFHSLQERELKHVSRWWKDSGSPEMTFCRHRHVEYYALASCIAFEPQHSGFRLGFTKMSHLITVLDDMYDVFGTVDELELFTATIKRWDPSAMECLPEYMKGVYMMVYHTVNEMARVAEKAQGRDTLNYARQAWEACFDSYMQEAKWIATGYLPTFEEYLENGKVSSAHRPCALQPILTLDIPFPDHILKEVDFPSKLNDLICIILRLRGDTRCYKADRARGEEASSISCYMKDNPGLTEEDALNHINFMIRDAIRELNWELLKPDNSVPITSKKHAFDISRVWHHGYRYRDGYSFANVETKSLVMRTVIEPVPL

Assay: Terpene synthase assay and GC-MS / chiral GC product identification of recombinant enzymes expressed from pSBET in E. coli BL21(DE3) (Example 11)
Assay type: biochemical
Description: For functional expression, bacterial strains E. coli BL21(DE3)/pSAG2(M), E. coli BL21(DE3)/pSAG2(R), E. coli BL21(DE3)/pSAG3(R), E. coli BL21(DE3)/pSAG6(M), E. coli BL21(DE3/pSAG6(R), E. coli BL21(DE3)/pSAG8(M), E. coli BL21(DE3)/pSAG9(M), E. coli BL21(DE3)/pSAG11(M) and E. coli BL21(DE3)/SAG11(R) were grown to A600=0.5 at 37° C. in 5 ml of Luria-Bertani medium (Sambrook, J., Fritsch, E. F., and Maniatis, T. (1989) Molecular Cloning: A Laboratory Manual, 2nd Ed., pp. 7.20-7.43, Cold Spring Harbor, N.Y.) supplemented with 30 μg kanamycin/ml. Cultures were then induced by addition of 1 mM isopropyl-1-thio-β-D-galactopyranoside and grown for another 12 h at 20° C. Cells were harvested by centrifugation and disrupted by sonication followed by centrifugation, and the resulting soluble enzyme preparations were assayed for monoterpene, sesquiterpene and diterpene synthase activity using the appropriate radiolabeled substrate as described previously (Bohlmann, J., Steele, C. L., and Croteau, R. (1997) J. Biol. Chem. 272, 21784-21792). This assay involves the isolation and separation of terpene olefins and oxygenated terpenes by column chromatography on silica, followed by scintillation counting to determine conversion rate. GC-MS analysis is employed for product identification, by comparison of retention times and mass spectra to those of authentic standards (Bohlmann, J., Steele, C. L., and Croteau, R. (1997) J. Biol Chem. 272, 21784-21792); assignment of absolute configuration is based upon chiral column capillary GC and matching of retention time to that of the corresponding enantiomer (Lewinsohn, E., Savage, T. J., Gijzen, M., and Croteau, R. (1993) Phytochem. Anal. 4, 220-225). To insure production of sufficient material for identification, the standard assay (Bohlmann, J., Steele, C. L., and Croteau, R. (1997) J. Biol. Chem. 272, 21784-21792) was scaled up by a factor of 20.
Initially, the four pSBET plasmids pSAG6(M), pSAG8(M), pSAG9(M) and pSAG11(M), containing the full-length cDNA inserts of ag6 (SEQ ID NO:64), ag8 (SEQ ID NO:66), ag9 (SEQ ID NO:77) and ag11 (SEQ ID NO:68), respectively, were expressed in E. coli BL21(DE3). Extracts of the induced, transformed bacterial cells were assayed for monoterpene, sesquiterpene and diterpene synthase activity using the corresponding labeled C10, C15 and C20 prenyl diphosphate substrates (Bohlmann, J., Steele, C. L., and Croteau, R. (1997) J. Biol. Chem. 272, 21784-21792). […] Since it is known that the relatively large amino-terminal transit peptide of plant terpene synthases can impair expression of the functional preprotein in E. coli and promote the formation of intractable inclusion bodies (Williams, D. C., McGarvey, D. J., Katahira, E. J., and Croteau, R. (1998) Biochemisiry 37, 12213-12220), the“pseudomature” forms of ag6 (SEQ ID NO:64) and ag11 (SEQ ID NO:68) were prepared by truncation of the cDNAs to insert a starting methionine immediately upstream of their tandem arginine elements (R59R 60 for ag6 (SEQ ID NO:64), R^71R^72 for ag11 (SEQ ID NO:68)) for expression in E. coli BL21(DE3)/pSAG6(R) and E. coli BL21(DE3)/pSAG11(R). Similar truncations of previously characterized ag2.2 (SEQ ID NO:1) (myrcene synthase, R^64R^65) and ag3.18 (SEQ ID NO:3) ((−)-pinene synthase, (SEQ ID NO:5) R^64R^65) (Bohlmann, J., Steele, C. L., and Croteau, R. (1997) J. Biol. Chem. 272, 21784-21792) were prepared for expression from pSBET as controls for the possible alteration of product yield and distribution resulting from truncation.
Monoterpenes generated at preparative scale from geranyl diphosphate by the recombinant enzymes encoded by ag6 (SEQ ID NO:64), ag8 (SEQ ID NO:66), ag9 (SEQ ID NO:77) and ag11 (SEQ ID NO:68) were analyzed by GC-MS and chiral phase (β-cyclodextrin) capillary GC, and identified by comparison of retention times and mass spectra to authentic standards (FIGS. 6-9). […] The enzyme encoded by ag6 (SEQ ID NO:65) is therefore designated as (−)-1S,4R-camphene synthase. […]

[1] = from geranyl diphosphate, preparative scale

Row | Molecule | terpene synthase activity on expression from pSBET in E. coli BL21(DE3) (extracts of induced cells) | (−)-1S,5S-α-pinene share of monoterpene products [1] | (−)-1S,5S-β-pinene share of monoterpene products [1] | (−)-4S-limonene share of monoterpene products [1] | terpinolene share of monoterpene products [1] | (−)-1S,4R-camphene share of monoterpene products [1] | prenyl diphosphate substrate yielding terpene olefin products (C10, C15, C20 tested) (truncated forms pSAG6(R), pSAG11(R) in E. coli BL21(DE3))
1 | B1 | Enzymatic production of terpene olefin(s) was observed | 18% | 10% | 11% | 42% | – | –
2 | B2 | – | 32% | – | 7% | – | 54% | only geranyl diphosphate yielded high levels of terpene olefin products
